Experimental findings from patent US20210380703A1 (RIGEL PHARMACEUTICALS, published 2021) are described below.

For experiment [1], the target named is T1, human ACVR2A (human, UniProt P27037 20-135, limits assumed).
T1 construct: coated antigen of the initial ELISA; also called activin receptor, type II A
Nature of the experiment: ELISA. The procedure, abridged:
(§1)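 ELISA measured binding of ACVR2A-specific monoclonal antibodies to human and mouse ACVR2A. Biotinylated goat anti-human kappa light chain served as positive control and human Fc as negative control.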
In general terms: An ELISA detects its analyte on a solid surface through an enzyme-linked reagent.
T1 sequence (P27037 20-135 limits assumed): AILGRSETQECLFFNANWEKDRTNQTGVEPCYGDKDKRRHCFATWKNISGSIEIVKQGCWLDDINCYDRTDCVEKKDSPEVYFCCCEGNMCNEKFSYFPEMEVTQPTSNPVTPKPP

In experiment [2] the target is T2, mouse ACVR2A (mouse, UniProt P27038 20-135, limits assumed).
T2 construct: coated antigen of the initial ELISA
Nature of the experiment: ELISA. The procedure, abridged:
as §1
T2 sequence (P27038 20-135 limits assumed): as the sequence (P27037 20-135 limits assumed) above, with K20R, V73I counted along it

The target of experiment [3] is T3, biotinylated goat anti-human kappa light chain.
T3 construct: positive control of the ELISA
In words: ELISA, positive control. How it is done: The binding of ACVR2A-specific monoclonal antibodies to human ACVR2A, mouse ACVR2A, biotinylated goat anti-human kappa light chain (positive control) and human Fc (negative control) were determined by ELISA.

The target of experiment [4] is T4, biotinylated goat anti-human kappa light chain.
T4 construct: Positive control of the ELISA
In words: ELISA; positive control. The procedure, abridged:
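Monoclonal antibodies were first applied to human or mouse ACVR2A, alongside biotinylated goat anti-human kappa light chain (positive control) and human Fc (negative control); binding was then determined by ELISA.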

The target of experiment [5] is human ACVR2A (human, UniProt P27037 20-135, limits assumed). Nature of the experiment: ELISA. In a few lines:
as §1
Target sequence in this assay (P27037 20-135 limits assumed): as the sequence (P27037 20-135 limits assumed) above

The target in experiment [6] is mouse ACVR2A (mouse, UniProt P27038 20-135, limits assumed). In words: ELISA. In a few lines:
as §1
Target sequence in this assay (P27038 20-135 limits assumed): as the sequence (P27037 20-135 limits assumed) above, with K20R, V73I counted along it
Note: test concentration or dose not given here.

B1: 375_E10 (antibody, V domains shown)
VH: EVQLLESGGGLVQPGGSLRLSCAASGFTFSSYSMNWVRQAPGKGLEWVSGINYNGGYTSYADSVKGRFTISRDNSKNTLYLQMNSLRAEDTAVYYCARGANWHDTALDYWGQGTLVTVSS
VL: DIQMTQSPSSLSASVGDRVTITCRASQSILSYLNWYQQKPGKAPKLVIYAATSRASGVPSRFSGSGSGTDFTLTISSLQPEDFATYYCQQSYDNPLTFGGGTKVEIK
notes: Group III
For B1, the results for the optical density (with human ACVR2A [1]; with mouse ACVR2A [2]; in experiment [3]) were 3.69 OD, 3.79 OD and 3.29 OD, respectively.

B2: 376_F04 (antibody, V domains shown)
VH: EVQLLESGGGLVQPGGSLRLSCAASGFTFDSYSMNWVRQAPGKGLEWVSNINYNSGYTGYADSVKGRFTISRDNSKNTLYLQMNSLRAEDTAVYYCARSANWHDTALDYWGQGTLVTVSS
VL: not shown
notes: VH/VL only
For B2, the optical density in experiment [4] amounted to 3.42 OD; with human ACVR2A [5], 3.07 OD; with mouse ACVR2A [6], 3.29 OD.

B3: 374_F02 (antibody, V domains shown)
VH: EVQLLESGGGLVQPGGSLRLSCAASGFTFDSYSMNWVRQAPGKGLEWVANINYNSGYTSYADSVKGRFTISRDNSKNTLYLQMNSLRAEDTAVYYCARSANWHDTALDYWGQGTLVTVSS
VL: DIQMTQSPSSLSASVGDRVTITCRASQSIVSYLNWYQQKPGKAPKLLIYAASSLQSGVPSRFSGSGSGTDFTLTISSLQPEDFATYYCQQSYELPLTFGGGTKVEIK
notes: VH/VL only
Turning to B3, the figures for the optical density (in experiment [4]; with human ACVR2A [5]; with mouse ACVR2A [6]) were 3.16 OD, 3.56 OD and 3.59 OD, respectively.

B4: 375_D04 (antibody, V domains shown)
VH: EVQLLESGGGLVQPGGSLRLSCAASGFTFDDSSMHWVRQAPGKGLEWVSNINYNGGYTGYADSVKGRFTISRDNSKNTLYLQMNSLRAEDTAVYYCAKSANWHDTALDYWGQGTLVTVSS
VL: DIQMTQSPSSLSASVGDRVTITCRASQSILSYVNWYQQKPGKAPKLVIYAATSRASGVPSRFSGSGSGTDFTLTISSLQPEDFATYYCQQSYELPLTFGGGTKVEIK
notes: VH/VL only
With B4, the optical density came to 3.17 OD in experiment [4], 3.69 OD with human ACVR2A [5] and 3.7 OD with mouse ACVR2A [6].

B5: 376_E03 (antibody, V domains shown)
VH: EVQLLESGGGLVQPGGSLRLSCAASGFTFSSYGMNWVRQAPGKGLEWVANINYNGGYTGYADSVKGRFTISRDNSKNTLYLQMNSLRAEDTAVYYCARSANWHDTALDYWGQGTLVTVSS
VL: DIQMTQSPSSLSASVGDRVTITCRASQSILSYVNWYQQKPGKAPKLVIYAATSLASGVPSRFSGSGSGTDFTLTISSLQPEDFATYYCQQSYDLPLTFGGGTKVEIK
notes: VH/VL only
On to B5, for which the results for the optical density (in experiment [4]; with human ACVR2A [5]; in the experiment with mouse ACVR2A [6]) were 3.42 OD, 3.79 OD and 3.74 OD, respectively.

B6: 376_D05 (antibody, V domains shown)
VH: EVQLLESGGGLVQPGGSLRLSCAASGFTFSSYSMNWVRQAPGKGLEWVSNINYNGGYKGYADSVKGRFTISRDNSKNTLYLQMNSLRAEDTAVYYCARSANWHDTALDYWGQGTLVTVSS
VL: DIQMTQSPSSLSASVGDRVTITCRASQSIVSYVNWYQQKPGKAPKLLIYAATSLASGVPSRFSGSGSGTDFTLTISSLQPEDFATYYCQQSYDTPLTFGGGTKVEIK
notes: VH/VL only
As for B6, the optical density in experiment [4] is 3.34 OD; in the experiment with human ACVR2A [5] it was 3.6 OD; with mouse ACVR2A [6], 3.71 OD.

B7: 376_D11 (antibody, V domains shown)
VH: EVQLLESGGGLVQPGGSLRLSCAASGFTFSSYGMNWVRQAPGKGLEWVANINYNGGYTGYADSVKGRFTISRDNSKNTLYLQMNSLRAEDTAVYYCARSANWHDTALDYWGQGTLVTVSS
VL: DIQMTQSPSSLSASVGDRVTITCRASQSILSYLNWYQQKPGKAPKLVIYAATSRASGVPSRFSGSGSGTDFTLTISSLQPEDFATYYCQQSYNNPLTFGGGTKVEIK
notes: VH/VL only
With B7, the figures for the optical density (in experiment [4]; in the experiment with human ACVR2A [5]; in the experiment with mouse ACVR2A [6]) were 3.43 OD, 3.7 OD and 3.62 OD, respectively.

B8: 367_A12 (antibody, V domains shown)
VH: EVQLLESGGGLVQPGGSLRLSCAASGFTFSSYGMNWVRQAPGKGLEWVSGINYNSGYTSYADSVKGRFTISRDNSKNTLYLQMNSLRAEDTAVYYCARGANWHDTHLDYWGQGTLVTVSS
VL: DIQMTQSPSSLSASVGDRVTITCRASQSILSYLNWYQQKPGKAPKLLIYAATSLHSGVPSRFSGSGSGTDFTLTISSLQPEDFATYYCQQSYNNPLTFGGGTKVEIK
notes: Group III
B8: the optical density in the experiment with human ACVR2A [1] was 2.44 OD; with mouse ACVR2A [2] it was 2.42 OD; in experiment [3], 3.65 OD.

B9: 376_F12 (antibody, V domains shown)
VH: EVQLLESGGGLVQPGGSLRLSCAASGFTFDDYSMNWVRQAPGKGLEWVAGINYNGGYKSYADSVKGRFTISRDNSKNTLYLQMNSLRAEDTAVYYCARSATWHDTHLDYWGQGTLVTVSS
VL: not shown
notes: VH/VL only
With B9, the optical density in experiment [4] was determined as 3.44 OD; with human ACVR2A [5] it was 3.13 OD; in the experiment with mouse ACVR2A [6], 3.25 OD.

B10: 376_F03 (antibody, V domains shown)
VH: EVQLLESGGGLVQPGGSLRLSCAASGFTFDSYGMNWVRQAPGKGLEWVANINYNGGYTGYADSVKGRFTISRDNSKNTLYLQMNSLRAEDTAVYYCARSANWHDTALDYWGQGTLVTVSS
VL: DIQMTQSPSSLSASVGDRVTITCRASQSIITYVNWYQQKPGKAPKLVIYATTSLASGVPSRFSGSGSGTDFTLTISSLQPEDFATYYCQQSYSSPLTFGGGTKVEIK
notes: VH/VL only
As to B10, the optical density was found to be 3.44 OD in experiment [4], 3.29 OD with human ACVR2A [5] and 3.47 OD with mouse ACVR2A [6].

B11: 376_G08 (antibody, V domains shown)
VH: EVQLLESGGGLVQPGGSLRLSCAASGFTFDSYGMNWVRQAPGKGLEWVANINYNGGYTSYADSVKGRFTISRDNSKNTLYLQMNSLRAEDTAVYYCARSANWHDTALDYWGQGTLVTVSS
VL: DIQMTQSPSSLSASVGDRVTITCRASQSILSYVNWYQQKPGKAPKLVIYAATSRASGVPSRFSGSGSGTDFTLTISSLQPEDFATYYCQQSYDTPLTFGGGTKVEIK
notes: VH/VL only
Take B11: the optical density turned out to be 3.47 OD in experiment [4], 3.69 OD in the experiment with human ACVR2A [5] and 3.64 OD in the experiment with mouse ACVR2A [6].

B12: 376_G09 (antibody, V domains shown)
VH: EVQLLESGGGLVQPGGSLRLSCAASGFTFDSYSMNWVRQAPGKGLEWVSGINYNSGYKGYADSVKGRFTISRDNSKNTLYLQMNSLRAEDTAVYYCARSANWHDTALDYWGQGTLVTVSS
VL: DIQMTQSPSSLSASVGDRVTITCRASQSISYYLNWYQQKPGKAPKLLIYAVTSRASGVPSRFSGSGSGTDFTLTISSLQPEDFATYYCQQSYDNPLTFGGGTKVEIK
notes: VH/VL only
Regarding B12, the optical density in experiment [4] worked out at 3.45 OD; in the experiment with human ACVR2A [5], 3.68 OD; with mouse ACVR2A [6], 3.65 OD.

B13: 376_H09 (antibody, V domains shown)
VH: EVQLLESGGGLVQPGGSLRLSCAASGFTFSDYSMNWVRQAPGKGLEWVANINYNGGYTGYADSVKGRFTISRDNSKNTLYLQMNSLRAEDTAVYYCARSANWHDTALDYWGQGTLVTVSS
VL: DIQMTQSPSSLSASVGDRVTITCRASQSIITYLNWYQQKPGKAPKLVIYYVSNLPSGVPSRFSGSGSGTDFTLTISSLQPEDFATYYCQQSYDSPLTFGGGTKVEIK
notes: VH/VL only
In the case of B13, the optical density stood at 3.46 OD in experiment [4], 3.32 OD in the experiment with human ACVR2A [5] and 3.3 OD in the experiment with mouse ACVR2A [6].

B14: 367_B01 (antibody, V domains shown)
VH: EVQLLESGGGLVQPGGSLRLSCAASGFTFSSYSMNWVRQAPGKGLEWVAGINYNGGYKGYADSVKGRFTISRDNSKNTLYLQMNSLRAEDTAVYYCARGANWHDTALDYWGQGTLVTVSS
VL: DIQMTQSPSSLSASVGDRVTITCRASQSISSYVNWYQQKPGKAPKLVIYAATSRASGVPSRFSGSGSGTDFTLTISSLQPEDFATYYCQQSYSTPLTFGGGTKVEIK
notes: Group III
For B14, the values for the optical density (with human ACVR2A [1]; with mouse ACVR2A [2]; in experiment [3]) were 2.84 OD, 2.91 OD and 3.67 OD, respectively.

B15: 376_E08 (antibody, V domains shown)
VH: EVQLLESGGGLVQPGGSLRLSCAASGFTFSDYGMNWVRQAPGKGLEWVAGINYNGGYTSYADSVKGRFTISRDNSKNTLYLQMNSLRAEDTAVYYCARSANWHDTALDYWGQGTLVTVSS
VL: DIQMTQSPSSLSASVGDRVTITCRASQSIVSYVNWYQQKPGKAPKLVIYAATSRASGVPSRFSGSGSGTDFTLTISSLQPEDFATYYCQQSYDSPLTFGGGTKVEIK
notes: VH/VL only
B15: the optical density in experiment [4] came to 3.47 OD; with human ACVR2A [5], 3.64 OD; in the experiment with mouse ACVR2A [6] it was 3.64 OD.

B16: 367_A10 (antibody, V domains shown)
VH: EVQLLESGGGLVQPGGSLRLSCAASGFTFSSYGMNWVRQAPGKGLEWVAGINYNSGYTSYADSVKGRFTISRDNSKNTLYLQMNSLRAEDTAVYYCARGANWHDTHLDYWGQGTLVTVSS
VL: DIQMTQSPSSLSASVGDRVTITCRASQSIITYVNWYQQKPGKAPKLLIYAATSLASGVPSRFSGSGSGTDFTLTISSLQPEDFATYYCQQSYDLPLTFGGGTKVEIK
notes: Group III
B16: the optical density with human ACVR2A [1] was determined as 1.89 OD; in the experiment with mouse ACVR2A [2], 2.16 OD; in experiment [3], 3.39 OD.

B17: 376_E12 (antibody, V domains shown)
VH: EVQLLESGGGLVQPGGSLRLSCAASGFTFSSYSMNWVRQAPGKGLEWVAGINYNGGYKSYADSVKGRFTISRDNSKNTLYLQMNSLRAEDTAVYYCARSATWHDTHLDYWGQGTLVTVSS
VL: not shown
notes: VH/VL only
For the molecule B17, the optical density in experiment [4] stood at 3.42 OD; with human ACVR2A [5], 3.61 OD; with mouse ACVR2A [6], 3.32 OD.

B18: 376_H10 (antibody, V domains shown)
VH: EVQLLESGGGLVQPGGSLRLSCAASGFTFDSYSMNWVRQAPGKGLEWVSGINYNSGYKSYADSVKGRFTISRDNSKNTLYLQMNSLRAEDTAVYYCARSANWHDTALDYWGQGTLVTVSS
VL: DIQMTQSPSSLSASVGDRVTITCRASQSILTYLNWYQQKPGKAPKLVIYAATSRHSGVPSRFSGSGSGTDFTLTISSLQPEDFATYYCQQSYDSPLTFGGGTKVEIK
notes: VH/VL only
Turning to B18, the optical density in experiment [4] is 3.54 OD; with human ACVR2A [5], 3.28 OD; with mouse ACVR2A [6], 3.29 OD.
